Test results taken from US20150044245A1, “PARTIAL MHC CONSTRUCTS AND METHODS OF USE” (Oregon Health & Science University, priority 2012, published 2015).
Where two headings read alike, the source gives them in different places.

Tests used:
[1] = molecular target: T1, CD74 (Mus musculus, UniProt P04441); assay: CD74 cell-surface expression on CD11b+ monocytes in vitro (FACS); type: cell-based; settings: naïve CD11b+ monocytes, 1 hour at 37° C.
T1 construct: endogenous in cells; host or cells: CD11b+ monocytes of DR2 (DR*1501)-Tg mice: naive blood cells in vitro; blood, spleen and spinal cord cells of treated EAE mice
T1 sequence (P04441 1-279): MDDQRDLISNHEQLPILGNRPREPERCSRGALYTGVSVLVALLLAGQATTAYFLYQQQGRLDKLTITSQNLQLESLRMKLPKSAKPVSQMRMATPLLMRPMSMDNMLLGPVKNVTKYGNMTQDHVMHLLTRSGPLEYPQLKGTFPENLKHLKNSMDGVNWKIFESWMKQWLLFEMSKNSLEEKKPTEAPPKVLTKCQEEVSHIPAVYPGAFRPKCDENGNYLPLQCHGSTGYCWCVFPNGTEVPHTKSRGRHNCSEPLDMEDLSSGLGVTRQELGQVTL
Procedure: Analysis of naive DR2 PBMC subtypes was preformed using four-color (fluorescein isothiocyanate (FITC), phycoerythrin (PE), propidium iodide, allophycocyanin) flow cytometry. Blood was collected from naive DR2 mice through cardiac exsanguination into 1X PBS/EDTA. After washing blood in 1X PBS, the red blood cells were lysed with 1X RBC lysis buffer (eBioscience, Inc., San Diego, Calif.) followed by two washes in RPMI. One million cells were incubated in RPMI with 1 μg unlabeled pDR2, 1 μg pDR2FITC, or 1 μg Fab Neutralized pDR2FITC for one hour at 37° C. For samples assessing Fab neutralization of pDR2 binding, pDR2s were incubated with 1:1 molar ratio of Fab1B11 or FabD2 for two hours at room temperature prior to incubation with cells, pDR2 incubation was followed directly by a 30 minute incubation at 4° C. with CD3 PE (ebioscience, Inc., San Diego, Calif.), CD74 PE (Santa Cruz Biotechnology, Inc., Santa Cruz, Calif.), or CD11b PE, CD11b allophycocyanin, CD11c allophycocyanin, CD19 allophycocyanin (BD Pharmingen, San Diego, Calif.). Antibodies and pDR2 were thoroughly removed by two additional washes in 1X PBS/0.5% BSA staining media. Cells were resuspended in staining media containing propidium iodide and immediately analyzed with a FACSCALIBUR™ using FCS EXPRESS™ software (BD Biosciences, San Jose, Calif.). […]

[2] = molecular target: T2, CD74 (Mus musculus, UniProt P04441); assay: Coimmunoprecipitation of FITC-labeled constructs with CD74; type: binding; settings: FITC-labeled construct, bead-immunopurified CD74
T2 construct: DR*1501-Tg splenocytes were biotinylated and lysed as described above and CD74 was immunoprecipitated overnight; endogenous in cells; host or cells: splenocytes of DR*1501-Tg mice (surface-biotinylated, lysed in 1% CHAPS/TEN; CD74 captured on Protein L / ln-1 beads)
T2 sequence (P04441 1-215 isoform P04441-2): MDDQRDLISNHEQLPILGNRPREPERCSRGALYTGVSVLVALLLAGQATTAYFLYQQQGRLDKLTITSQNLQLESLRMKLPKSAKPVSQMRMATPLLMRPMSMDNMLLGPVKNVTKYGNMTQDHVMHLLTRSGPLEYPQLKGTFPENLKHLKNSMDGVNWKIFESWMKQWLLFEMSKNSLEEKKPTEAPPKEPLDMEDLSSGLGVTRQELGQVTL
Procedure: For immunoprecipitation experiments, antibody TU39 (BD Pharmingen) was pre-bound to bead-conjugated Protein A for 2 hours in ice-cold TEN-TX100 or TEN-CHAPS followed by RTL binding to these complexes. Lysate (previously pre-cleared with bead-conjugated Protein A) was added to the tube and binding was carried out overnight at 4° C. with soft orbital shaking Samples were extensively washed with TEN buffer and the appropriate detergent. For CD74 immunoprecipitation, ln-1 mAb was adsorbed to bead-conjugated Protein L as described above and pre-cleared lysate was added to this mixture. When necessary, bound material was eluted by boiling the immune complexes in electrophoresis sample buffer and analyzed by SDS-PAGE and Western blot.
(§1) For direct binding of RTL constructs, Protein-L/ln-1/CD74 complexes were prepared as described above. Labeled ligand constructs were incubated for 4 hours at 4° C. in 1% CHAPS in TEN buffer and free ligand was removed by extensive washing. Elution of bound proteins was carried out as described above and the eluate was analyzed by SDS-P AGE. […] In all assays involving fluorescent labeling, the chromophore was detected by scanning at the appropriate wavelength using a Molecular Imager® FX scanner (Bio-Rad) and the fluorescence intensity was determined using Quantity One® software (Bio-Rad) associated with the imager.

[3] = molecular target: MHC class II from DR*1501-Tg mice; assay: Direct binding of FITC-labeled constructs to MHC class II immuno-adsorbed from CD74-depleted lysate; parameters: species or system mouse; settings: FITC-labeled ligand, read-out: MHC Class II One binding site KD
Procedure: (§2) In order to test ligand binding to the separate components of the RTL receptor, DR*1501-Tg splenocytes were biotinylated and lysed as described above and CD74 was immunoprecipitated overnight at 4° C. with the anti-CD74 monoclonal antibody ln-1. Immune complexes (Protein L-beads/ln-1/CD74) were analyzed for their ability to bind FITC-labeled pDR2RTL constructs by performing a direct binding saturation with increasing concentration of the different constructs (0 to 10 nM). Binding was carried out for 4 hours at 4° C. with gentle shaking and in the presence of 1% CHAPS in TEN buffer. Afterwards the complexes were washed thoroughly with 1% CHAPS/TEN and once with only TEN buffer to remove excess detergent. Bound proteins were eluted in 2% SDS electrophoresis sample buffer at 90° C. for 6 to 8 minutes and beads were sedimented. After the supernatant was collected and proteins separated using 10-20% SDS-PAGE, the gel was scanned for FITC chromophore and quantified by densitometry. Ligand concentration was plotted versus the fluorescence intensity of the bands and the curve generated was fit to one or two binding sites with the GraphPad Prism® Software. […] Direct binding to saturating concentrations of the pDR2 constructs was carried out and analyzed as described above.

[4] = molecular target: T2, CD74; assay: Competition with labeled RTL1000 for binding to immunoprecipitated CD74; settings: unlabeled competitor
Procedure: as §1

[5] = system: mMOG-35-55-induced EAE in DR*1501-Tg mice; settings: for effect on EAE (in words): mMOG-35-55-induced EAE
[6] = system: CD80; assay: CD80 expression on CD11b+ monocytes from spinal cord of treated EAE mice; type: in vivo, mouse; settings: day 15 post-immunization
Procedure: EAE was induced in mice by immunization with mMOG-35-55. At disease onset, the mice were treated with one of the following constructs: (i) pDR2 with covalently bound mMOG-35-55 (100 μg), (ii) pDR2 without peptide (1000 μg), (iii) DR-α1 (750 μg), or (iv) vehicle alone. The constructs were administered subcutaneously for two sequential days. On day 15 post-immunization, mice were sacrificed and spinal cords were harvested and pooled for each group. Isolated cells were stained for CD74, CD11b, CD80, ICAM, and HLA-DR expression and analyzed by FACS.

[7] = system: hMOG-35-55-induced EAE in DR*1502-Tg mice; settings: treated at disease onset
Procedure: In addition, mice were given pertussis toxin (Ptx) from List Biological Laboratories (Campbell, Calif.) on days 0 and 2 post-immunization (75 ng and 200 ng per mouse, respectively). Immunized mice were assessed daily for clinical signs of EAE on a 6 point scale of combined hind limb and forelimb paralysis scores. For hind limb scores: 0=normal; 0.5=limp tail or mild hind limb weakness (e.g., a mouse cannot resist inversion after a 90° turn of the base of the tail); 1=limp tail and mild hind limb weakness; 2=limp tail and moderate hind limb weakness (e.g., an inability of the mouse to rapidly right itself after inversion); 3=limp tail and moderately severe hind limb weakness (e.g., inability of the mouse to right itself after inversion and clear tilting of hind quarters to either side while walking); 4=limp tail and severe hind limb weakness (hind feet can move but drag more frequently than face forward); 5=limp tail and paraplegia (no movement of hind limbs). Front limb paralysis scores are either 0.5 for clear restriction in normal movement or 1 for complete forelimb paralysis. The combined score is the sum of the hind limb score and the forelimb score.
(§3) Rarely, there was mortality of HLA-DR2 mice with severe EAE and in these cases, mice were scored as a 6 for the remainder of the experiment. Mean EAE scores and standard deviations for mice grouped according to initiation of RTL or vehicle treatment were calculated for each day and summed for the entire experiment (Cumulative Disease Index, CDI, represents total disease load). Daily mean scores were analyzed by a two-tailed Mann Whitney U test for nonparametric comparisons between vehicle and pDR2 treatment groups. Mean CDIs were analyzed by a one way ANOVA with Tukey post-test, and a nonparametric one way Kruskal-Wallis ANOVA with Dunn's multiple comparisons post-test to confirm significance between all groups.
(§4) pDR2 constructs (Table 3) were injected subcutaneously daily for 5 days at the indicated doses to treat EAE induced in HLA-DR2-Tg and MBP-TCR/DR2-Tg mice and clinical signs were scored as described above. […] Fab1B11 alone in vehicle was run as a negative control.

[8] = system: MBP-85-99-induced EAE in MBP-TCR/DR2-Tg mice
Procedure: HLA-DR2 positive male and female mice between 8 and 12 weeks of age were immunized subcutaneously at four sites on the flanks with 0.2 ml of an emulsion of 200 μg immunogenic peptide and complete Freund's adjuvant containing 400 μg of heat-killed Mycobacterium tuberculosis H37RA (Difco, Detroit, Mich.) (Vandenbark et al, J Immunol 171:127-133, 2003; Buenafe et al, Immunology 130:114-124, 2010). In addition, mice were given pertussis toxin (Ptx) from List Biological Laboratories (Campbell, Calif.) on days 0 and 2 post-immunization (75 ng and 200 ng per mouse, respectively). Immunized mice were assessed daily for clinical signs of EAE on a 6 point scale of combined hind limb and forelimb paralysis scores. For hind limb scores: 0=normal; 0.5=limp tail or mild hind limb weakness (e.g., a mouse cannot resist inversion after a 90° turn of the base of the tail); 1=limp tail and mild hind limb weakness; 2=limp tail and moderate hind limb weakness (e.g., an inability of the mouse to rapidly right itself after inversion); 3=limp tail and moderately severe hind limb weakness (e.g., inability of the mouse to right itself after inversion and clear tilting of hind quarters to either side while walking); 4=limp tail and severe hind limb weakness (hind feet can move but drag more frequently than face forward); 5=limp tail and paraplegia (no movement of hind limbs). Front limb paralysis scores are either 0.5 for clear restriction in normal movement or 1 for complete forelimb paralysis. The combined score is the sum of the hind limb score and the forelimb score.
as §3, §4

[9] = molecular target: T2, CD74; assay: Direct binding of FITC-labeled constructs to immuno-adsorbed CD74; settings: FITC-labeled ligand, immuno-adsorbed CD74, 4 hours at 4° C., 1% CHAPS; read-out: CD74 One binding site KD
Procedure: as §2

[10] = MBP-TCR/DR2-Tg mice, treated for five days following onset
[11] = DR*1501-Tg mice, mMOG-35-55/CFA/Ptx EAE, treated at disease onset

B1: DR-α1: construct comprising DR-α1 domain alone (with no DR2-β1 domain or peptide) (protein)
chain: IKEEHVIIQAEFYLNPDQSGEFMFDFDGDEIFHVDMAKKETVWRLEEFGRFASFEAQGALANIAVDKANLEIMTKRSNYTPITN
CD74 expression versus construct binding/concentration (in words) [1]: inverse relationship between pMHC concentration and CD74 expression | coimmunoprecipitation with CD74 (in words) [2]: coimmunoprecipitated with CD74 | Kd [3]: > 10 nM | competition with pDR2/hMOG-35-55 for binding to CD74 (in words) [4]: competed with pDR2/hMOG-35-55 for binding to CD74 | CDI ([5]; 100 μg daily X2 (Table 12)): 32.9 ± 7.8 | Incidence ([5]; 100 μg daily X2 (Table 12)): 4/4 | Mortality ([5]; 100 μg daily X2 (Table 12)): 0 | Onset ([5]; 100 μg daily X2 (Table 12)): 10.0 ± 1.2 | Peak ([5]; 100 μg daily X2 (Table 12)): 2.6 ± 0.5 | CDI ([5]; 300 μg daily X2 (Table 12)): 24.1 ± 10.3 | Incidence ([5]; 300 μg daily X2 (Table 12)): 11/11 | Mortality ([5]; 300 μg daily X2 (Table 12)): 0 | Onset ([5]; 300 μg daily X2 (Table 12)): 9.5 ± 0.8 | Peak ([5]; 300 μg daily X2 (Table 12)): 2.3 ± 0.6 | CDI ([5]; 500 μg daily X2 (Table 12)): 20.7 ± 12.7 | Incidence ([5]; 500 μg daily X2 (Table 12)): 10/10 | Mortality ([5]; 500 μg daily X2 (Table 12)): 0 | Onset ([5]; 500 μg daily X2 (Table 12)): 9.6 ± 0.7 | Peak ([5]; 500 μg daily X2 (Table 12)): 2.5 ± 0.7 | CDI ([5]; 1000 μg daily X2 (Table 12)): 21.1 ± 9.9 | Incidence ([5]; 1000 μg daily X2 (Table 12)): 6/6 | Mortality ([5]; 1000 μg daily X2 (Table 12)): 0 | Onset ([5]; 1000 μg daily X2 (Table 12)): 10.7 ± 1.0 | Peak ([5]; 1000 μg daily X2 (Table 12)): 2.3 ± 0.4 | effect on EAE (in words) [5]: lower than those treated with vehicle alone

B2: RTL302-5D: Human HLA DR2 (DRB1*1501/DRA*0101) β1α1 domains (V102D, I104D, A106D, F108D, L110D), no peptide (protein)
chain: MGDTRPRFLWQPKRECHFFNGTERVRFLDRYFYNQEESVRFDSDVGEFRAVTELGRPDAEYWNSQKDILEQARAAVDTYCRHNYGVVESFTVQRRVIKEEHDIDQDEDYDNPDQSGEFMFDFDGDEIFHVDMAKKETVWRLEEFGRFASFEAQGALANIAVDKANLEIMTKRSNYTPITN
CD80 expression (in words) [6]: decreased | CDI ([7]; cumulative disease index): 36.8 ± 7.1 | Incidence ([7]; hMOG-35-55/CFA/Ptx EAE): 6/6 | Onset ([7]; hMOG-35-55/CFA/Ptx EAE): 15.0 ± 1.7 | Peak ([7]; peak clinical EAE score): 2.9 ± 0.5 | Mortality [7]: 0 | effect on EAE (in words) ([8]; MBP-85-99-induced EAE): ineffective at treating EAE | CDI [8, 10]: 43.3 ± 12.0 | Incidence [8, 10]: 6/6 | Mortality [8, 10]: 0 | Onset [8, 10]: 17.5 ± 5.0 | Peak [8, 10]: 3.7 ± 0.8 | coimmunoprecipitation with CD74 (in words) [2]: also coimmunoprecipitated with CD74, but at much lower levels | Kd [9]: > 10 nM | Kd [3]: > 10 nM | CDI ([5]; 100 μg x 5 (Table 11)): 43.1 ± 10.6 | Incidence ([5]; 100 μg x 5 (Table 11)): 9/9 | Mortality ([5]; 100 μg x 5 (Table 11)): 0 | Onset ([5]; 100 μg x 5 (Table 11)): 11.7 ± 1.1 | Peak ([5]; 100 μg x 5 (Table 11)): 3.3 ± 0.9 | CDI ([5]; 1 mg x 2 (Table 11)): 34.2 ± 6.2 | Incidence ([5]; 1 mg x 2 (Table 11)): 3/3 | Mortality ([5]; 1 mg x 2 (Table 11)): 0 | Onset ([5]; 1 mg x 2 (Table 11)): 9.0 ± 0.0 | Peak ([5]; 1 mg x 2 (Table 11)): 2.8 ± 0.3 | Incidence [5, 11]: 9/9 | Onset [5, 11]: 11.7 ± 1.1 | Mortality ([5]; DR*1501-Tg mice, treated at disease onset): 0 | CDI ([5]; cumulative disease index, DR*1501-Tg mice, treated at disease onset): 42.9 ± 10.7 | effect on EAE (in words) ([5]; listed as pDR2/no peptide): significant reduction of daily and cumulative EAE scores compared to treatment with vehicle | effect on EAE (in words) ([5]; listed as pDR2 without peptide): lower than those treated with vehicle alone | Peak ([5]; peak clinical EAE score, DR*1501-Tg mice, treated at disease onset): 3.3 ± 0.9
